Among the data in the Human Domainome abundance scans (Beltran et al. 2025) are abundance fitness values, retold here.

The chains are these.
B1: Chromodomain-helicase-DNA-binding protein 5, residues 338 to 390; numbered along this chain, Q8TDI0 (parent)
chain: YETDHQDYCEVCQQGGEIILCDTCPRAYHLVCLDPELEKAPEGKWSCPHCEKE

± gives the uncertainty stated by the source.

This data set covers variants of B1. Nature of the data set: abundance fitness (aPCA) (normalised: wild type 0, dead -1); higher = more abundant; growth selection in yeast, the domain comes from the species named. Particulars: Homo sapiens.
In the case of P41F, the abundance fitness was -0.164 ± 0.26.
As for P41A, the figure is 0.058 ± 0.11; as for P41G, -0.106 ± 0.12; as for P41Q, -0.568 ± 0.2.
For the variant P41R, the abundance fitness is -0.075 ± 0.098.
Next, P41N: 0.18 ± 0.19; P41M: -0.124 ± 0.17; P41Y: -0.443 ± 0.27.
Next, P41E: -0.114 ± 0.13.
Next, S46M: -0.266 ± 0.15; S46R: -0.143 ± 0.094; S46V: 0.011 ± 0.1.
Regarding S46I, the abundance fitness is 0.137 ± 0.24.
Consider S46Q, for which the abundance fitness was -0.331 ± 0.15.
For the variant S46A, the abundance fitness is -0.11 ± 0.12.
Turning to S46K, the abundance fitness is -0.258 ± 0.18.
Regarding S46E, the abundance fitness was -0.023 ± 0.12.
Next, S46H: -0.203 ± 0.22.
In the case of S46D, the abundance fitness was -0.197 ± 0.14.
For the variant S46G, the abundance fitness was -0.005 ± 0.1.
In the case of S46T, the abundance fitness was 0.024 ± 0.15.
As for S46F, the figure is -0.035 ± 0.17; as for S46P, -0.109 ± 0.13.
For S46L, the abundance fitness turned out to be 0.051 ± 0.12.
As for S46W, the figure is -0.14 ± 0.13.
Next, S46Y: -0.335 ± 0.16; S46N: -0.056 ± 0.3.
Next, S46C: 0.073 ± 0.2; A40T: -0.088 ± 0.13.
For the variant A40F, the abundance fitness was determined as 0.3 ± 0.16.
For A40N, the abundance fitness worked out at 0.187 ± 0.16.
As for A40C, the figure is -0.396 ± 0.16.
Next, A40W: -0.404 ± 0.16; A40H: -0.094 ± 0.22.
As for A40Q, the figure is -0.273 ± 0.24; as for A40I, 0.131 ± 0.16; as for A40E, -0.274 ± 0.17.
Take A40R: the abundance fitness is -0.072 ± 0.11.
As for A40K, the figure is -0.218 ± 0.19; as for A40S, 0.024 ± 0.11.
As for A40M, the figure is 0.017 ± 0.14.
A40D: the abundance fitness is -0.243 ± 0.19.
As for A40V, the figure is -0.033 ± 0.1; as for A40G, -0.168 ± 0.11; as for A40Y, -0.23 ± 0.18.
As for A40P, the figure is -0.023 ± 0.15; as for K44N, -0.237 ± 0.2.
K44D: the abundance fitness worked out at 0.216 ± 0.16.
For K44Q, the abundance fitness was -0.053 ± 0.13.
As to K44M, the abundance fitness was 0.116 ± 0.15.
Consider K44P, for which the abundance fitness is -0.255 ± 0.14.
Regarding K44W, the abundance fitness is -0.236 ± 0.13.
As to K44E, the abundance fitness was found to be 0.031 ± 0.12.
Next, K44Y: -0.599 ± 0.21; K44G: 0.065 ± 0.093; K44C: -0.051 ± 0.13.
As for K44R, the figure is 0.14 ± 0.099; as for K44A, -0.255 ± 0.15; as for K44H, -0.341 ± 0.22.
With K44T, the abundance fitness was determined as 0 ± 0.13.
Take K44F: the abundance fitness was -0.259 ± 0.17.
Next, K44S: -0.125 ± 0.12; K44L: -0.009 ± 0.12.
As for K44I, the abundance fitness was -0.32 ± 0.21.
As for P48E, the figure is -0.017 ± 0.12; as for P48Y, -0.022 ± 0.28; as for P48W, 0.01 ± 0.14.
Consider P48N, for which the abundance fitness came out at 0.014 ± 0.24.
P48V: the abundance fitness was -0.04 ± 0.1.
In the case of P48Q, the abundance fitness is -0.087 ± 0.17.
Next, P48H: -0.484 ± 0.23.
Consider P48S, for which the abundance fitness worked out at 0.016 ± 0.12.
P48T: the abundance fitness is -0.006 ± 0.15.
Next, P48I: 0.025 ± 0.19.
In the case of P48F, the abundance fitness was determined as 0.124 ± 0.23.
Next, P48M: 0.107 ± 0.14.
As for P48C, the figure is 0.016 ± 0.16; as for E42R, -0.085 ± 0.11; as for E42T, 0.014 ± 0.13.
Regarding E42K, the abundance fitness was -0.563 ± 0.18.
Take E42V: the abundance fitness was found to be 0.068 ± 0.11.
Next, E42D: -0.013 ± 0.18; E42Q: -0.224 ± 0.17; E42W: -0.318 ± 0.15.
As for E42Y, the figure is -0.076 ± 0.19; as for E42L, -0.05 ± 0.1.
Next, E42M: 0.138 ± 0.16.
In the case of E42P, the abundance fitness was -0.184 ± 0.13.
Regarding E42I, the abundance fitness is -0.019 ± 0.22.
For the variant E42A, the abundance fitness was -0.113 ± 0.11.
Turning to E42F, the abundance fitness is -0.413 ± 0.18.
With E42G, the abundance fitness is -0.117 ± 0.1.
In the case of E42H, the abundance fitness was -0.068 ± 0.23.
On to E42S, for which the abundance fitness was -0.241 ± 0.11.
Next, P35T: 0.069 ± 0.13; P35Y: 0.027 ± 0.24; P35R: -0.096 ± 0.12.
Next, P35I: -0.209 ± 0.21; P35Q: -0.058 ± 0.15; P35N: -0.211 ± 0.23.
As for P35M, the figure is 0.121 ± 0.13; as for P35K, 0.082 ± 0.15; as for P35W, -0.428 ± 0.19.
On to P35V, for which the abundance fitness worked out at 0.03 ± 0.096.
As for P35S, the figure is -0.057 ± 0.11; as for P35H, -0.524 ± 0.34; as for P35L, -0.078 ± 0.097.
As for W45M, the abundance fitness is 0.115 ± 0.17.
As for W45G, the figure is -0.091 ± 0.096; as for W45Y, -0.293 ± 0.17.
On to W45L, for which the abundance fitness was -0.157 ± 0.12.
With W45V, the abundance fitness is 0 ± 0.1.
Next, W45E: -0.202 ± 0.14; W45P: -0.086 ± 0.18; W45S: -0.054 ± 0.1.
With W45F, the abundance fitness is -0.05 ± 0.17.
Consider W45D, for which the abundance fitness was -0.268 ± 0.13.
For the variant W45A, the abundance fitness is -0.105 ± 0.14.
On to W45Q, for which the abundance fitness was -0.29 ± 0.17.
Regarding W45C, the abundance fitness stood at 0.157 ± 0.14.
As for W45K, the figure is -0.046 ± 0.22; as for W45I, -0.146 ± 0.18.
Next, W45T: -0.393 ± 0.16.
Next, W45H: 0.283 ± 0.2.
On to C50G, for which the abundance fitness was -0.55 ± 0.1.
Next, C50W: -0.718 ± 0.18; C50F: -0.654 ± 0.23; C50T: -0.409 ± 0.19.
As for C50Q, the figure is -0.365 ± 0.17; as for C50D, -0.626 ± 0.24; as for C50R, -0.71 ± 0.12.
As for C50M, the abundance fitness is -1.01 ± 0.34.
As for C50L, the abundance fitness is -0.575 ± 0.13.
For the variant C50N, the abundance fitness is -0.498 ± 0.2.
As to C50H, the abundance fitness is 0.231 ± 0.18.
Next, C50E: 0.025 ± 0.14; C50S: -0.416 ± 0.12; C50K: -0.405 ± 0.19.
As for C50A, the figure is -0.503 ± 0.13; as for C50P, -0.499 ± 0.18.
As for C50Y, the figure is -0.507 ± 0.17.
As for E53D, the abundance fitness was found to be 0.016 ± 0.3.
Turning to E53K, the abundance fitness was -0.173 ± 0.4.
As to E53V, the abundance fitness was -0.29 ± 0.18.
As for E53L, the figure is 0.022 ± 0.29.
Take E53Y: the abundance fitness is -0.219 ± 0.43.
Take E53A: the abundance fitness is -0.246 ± 0.16.
Take E53R: the abundance fitness was -0.341 ± 0.16.
As for E53G, the figure is 0.086 ± 0.13; as for E53C, 0.222 ± 0.23.
Next, E53S: -0.548 ± 0.25; E53W: -0.526 ± 0.23.
On to L37V, for which the abundance fitness was -0.026 ± 0.11.
L37N: the abundance fitness was -0.102 ± 0.31.
For L37M, the abundance fitness was -0.152 ± 0.16.
Regarding L37E, the abundance fitness is -0.566 ± 0.18.
In the case of L37K, the abundance fitness is -0.04 ± 0.2.
As to L37T, the abundance fitness came to 0.101 ± 0.13.
Next, L37H: -0.069 ± 0.33; L37W: -0.496 ± 0.13.
As for L37S, the figure is 0.211 ± 0.11; as for L37P, -0.085 ± 0.15; as for L37C, -0.094 ± 0.16.
As to L37G, the abundance fitness is 0.032 ± 0.11.
Regarding L37R, the abundance fitness stood at 0.115 ± 0.095.
On to L37F, for which the abundance fitness was -0.147 ± 0.35.
Consider L37Y, for which the abundance fitness is -0.237 ± 0.26.
